Data on one molecule can be found in article PMC12804970, “Molecular basis of XPF-ERCC1 targeting to SLX4-dependent DNA repair pathways” (Nature Communications, 2025).

The target in the test is T1, His6-XPF (xeroderma pigmentosum complementation group F), wild type (human, UniProt Q92889 1-916).
T1 construct: XPF (ERCC4), human; Always co-expressed with ERCC1; also called ERCC4; XPF^WT; source: Sf9 (small-scale assays: Sf9 or Hi5), baculovirus co-expression with ERCC1; purified as complexes (Ni-NTA or Strep-Tactin, Capto HiRes Q, Superdex 200) or in insect cell lysate; not shown: His6, N-terminal, kept
Briefly: co-purification (Strep-Tactin, ion exchange, SEC); co-infection of Sf9 with His6-XPF-ERCC1(-SLX4IP) and Twin-Strep-SLX4 fragment viruses; capture by the Twin-Strep tag on SLX4 on Strep-Tactin, 250 mM KCl, 40 mM HEPES-KOH pH 7.9, then Capto HiRes Q and Superdex 200; SDS-PAGE. Particulars: partners not purified.

B1: Twin-Strep-SLX4^330-555 (domain or fragment, human, UniProt Q8IY92 330-555, looked up)
chain: VPQIPECPICGKPFLTLKSRTSHLKQCAVKMEVGPQLLLQAVRLQTAQPEGSSSPPMFSFSDHSRGLKRRGPTSKKEPRKRRKVDEAPSEDLLVAMALSRSEMEPGAAVPALRLESAFSERIRPEAENKSRKKKPPVSPPLLLVQDSETTGRQIEDRVALLLSEEVELSSTPPLPASRILKEGWERAGQCPPPPERKQSFLWEGSALTGAWAMEDFYTARLVPPLV
notes: from clone HsCD00821809 (DNASU) in vector 438-Sn; source: Sf9 (small-scale assays: Sf9 or Hi5), baculovirus co-infection with His6-XPF-ERCC1(-SLX4IP); purified as complexes (Strep-Tactin, Capto HiRes Q, Superdex 200) or in insect cell lysate; not shown: twin-Strep, N-terminal, kept
Take B1: the binding result was “binds”.
